# ± gives the uncertainty stated by the source.
# B1: POU domain, class 3, transcription factor 2, residues 356 to 411; numbered along this chain, P20265 (parent)
# chain: KKRTSIEVSVKGALESHFLKCPKPSAQEITSLADSLQLEKEVVRVWFCNRRQKEKR
# Variants of: B1
# Test: abundance fitness (aPCA) (normalised: wild type 0, dead -1); higher = more abundant; growth selection in yeast, the domain comes from the species named
# Details: Homo sapiens
row,Variant,abundance fitness
1,KKRTSIEVSVKGALESHFLKCQKPSAQEITSLADSLQLEKEVVRVWFCNRRQKEKR [P22Q],0.137 ± 0.13
2,KKRTSIEVSVKGALESHFLKCVKPSAQEITSLADSLQLEKEVVRVWFCNRRQKEKR [P22V],-0.713 ± 0.082
3,KKRTSIEVSVKGALESHFLKCNKPSAQEITSLADSLQLEKEVVRVWFCNRRQKEKR [P22N],-0.337 ± 0.15
4,KKRTSIEVSVKGALESHFLKCGKPSAQEITSLADSLQLEKEVVRVWFCNRRQKEKR [P22G],-0.46 ± 0.09
5,KKRTSIEVSVKGALESHFLKCSKPSAQEITSLADSLQLEKEVVRVWFCNRRQKEKR [P22S],-0.253 ± 0.1
6,KKRTSIEVSVKGALESHFLKCTKPSAQEITSLADSLQLEKEVVRVWFCNRRQKEKR [P22T],-0.313 ± 0.1
7,KKRTSIEVSVKGALESHFLKCAKPSAQEITSLADSLQLEKEVVRVWFCNRRQKEKR [P22A],-0.044 ± 0.088
8,KKRTSIEVSVKGALESHFLKCYKPSAQEITSLADSLQLEKEVVRVWFCNRRQKEKR [P22Y],-0.718 ± 0.16
9,KKRTSIEVSVKGALESHFLKCEKPSAQEITSLADSLQLEKEVVRVWFCNRRQKEKR [P22E],-0.246 ± 0.11
10,KKRTSIEVSVKGALESHFLKCHKPSAQEITSLADSLQLEKEVVRVWFCNRRQKEKR [P22H],-0.189 ± 0.17
11,KKRTSIEVSVKGALESHFLKCKKPSAQEITSLADSLQLEKEVVRVWFCNRRQKEKR [P22K],-0.348 ± 0.13
12,KKRTSIEVSVKGALESHFLKCFKPSAQEITSLADSLQLEKEVVRVWFCNRRQKEKR [P22F],-0.996 ± 0.37
13,KKRTSIEVSVKGALESHFLKCCKPSAQEITSLADSLQLEKEVVRVWFCNRRQKEKR [P22C],-0.227 ± 0.15
14,KKRTSIEVSVKGALESHFLKCWKPSAQEITSLADSLQLEKEVVRVWFCNRRQKEKR [P22W],-0.699 ± 0.13
15,KKRTSIEVSVKGALESHFLKCRKPSAQEITSLADSLQLEKEVVRVWFCNRRQKEKR [P22R],-0.367 ± 0.08
16,KKRTSIEVSVKGALESHFLKCDKPSAQEITSLADSLQLEKEVVRVWFCNRRQKEKR [P22D],-0.122 ± 0.12
17,KKRTSIEVSVKGALESHFLKCIKPSAQEITSLADSLQLEKEVVRVWFCNRRQKEKR [P22I],-0.704 ± 0.17
18,KKRTSIEVSVKGALESHFLKCLKPSAQEITSLADSLQLEKEVVRVWFCNRRQKEKR [P22L],-0.919 ± 0.11
19,KKRTSIEVSVKGALESHFLKFPKPSAQEITSLADSLQLEKEVVRVWFCNRRQKEKR [C21F],-0.351 ± 0.11
20,KKRTSIEVSVKGALESHFLKEPKPSAQEITSLADSLQLEKEVVRVWFCNRRQKEKR [C21E],-0.072 ± 0.13
21,KKRTSIEVSVKGALESHFLKIPKPSAQEITSLADSLQLEKEVVRVWFCNRRQKEKR [C21I],-0.484 ± 0.17
22,KKRTSIEVSVKGALESHFLKKPKPSAQEITSLADSLQLEKEVVRVWFCNRRQKEKR [C21K],-0.478 ± 0.19
23,KKRTSIEVSVKGALESHFLKAPKPSAQEITSLADSLQLEKEVVRVWFCNRRQKEKR [C21A],-0.304 ± 0.11
24,KKRTSIEVSVKGALESHFLKVPKPSAQEITSLADSLQLEKEVVRVWFCNRRQKEKR [C21V],-0.421 ± 0.092

row,Variant,abundance fitness
1,KKRTSIEVSVKGALESHFLKDPKPSAQEITSLADSLQLEKEVVRVWFCNRRQKEKR [C21D],-0.062 ± 0.16
2,KKRTSIEVSVKGALESHFLKRPKPSAQEITSLADSLQLEKEVVRVWFCNRRQKEKR [C21R],-0.419 ± 0.077
3,KKRTSIEVSVKGALESHFLKGPKPSAQEITSLADSLQLEKEVVRVWFCNRRQKEKR [C21G],-0.521 ± 0.081
4,KKRTSIEVSVKGALESHFLKWPKPSAQEITSLADSLQLEKEVVRVWFCNRRQKEKR [C21W],-0.437 ± 0.11
5,KKRTSIEVSVKGALESHFLKMPKPSAQEITSLADSLQLEKEVVRVWFCNRRQKEKR [C21M],-0.354 ± 0.11
6,KKRTSIEVSVKGALESHFLKYPKPSAQEITSLADSLQLEKEVVRVWFCNRRQKEKR [C21Y],-0.506 ± 0.13
7,KKRTSIEVSVKGALESHFLKQPKPSAQEITSLADSLQLEKEVVRVWFCNRRQKEKR [C21Q],-0.01 ± 0.15
8,KKRTSIEVSVKGALESHFLKPPKPSAQEITSLADSLQLEKEVVRVWFCNRRQKEKR [C21P],-1.14 ± 0.33
9,KKRTSIEVSVKGALESHFLKLPKPSAQEITSLADSLQLEKEVVRVWFCNRRQKEKR [C21L],-0.651 ± 0.094
10,KKRTSIEVSVKGALESHFLKNPKPSAQEITSLADSLQLEKEVVRVWFCNRRQKEKR [C21N],-0.168 ± 0.16
11,KKRTSIEVSVKGALESHFLKCPKASAQEITSLADSLQLEKEVVRVWFCNRRQKEKR [P24A],-0.789 ± 0.16
12,KKRTSIEVSVKGALESHFLKCPKESAQEITSLADSLQLEKEVVRVWFCNRRQKEKR [P24E],-0.846 ± 0.21
13,KKRTSIEVSVKGALESHFLKCPKWSAQEITSLADSLQLEKEVVRVWFCNRRQKEKR [P24W],-0.839 ± 0.16
14,KKRTSIEVSVKGALESHFLKCPKSSAQEITSLADSLQLEKEVVRVWFCNRRQKEKR [P24S],-0.998 ± 0.18
15,KKRTSIEVSVKGALESHFLKCPKFSAQEITSLADSLQLEKEVVRVWFCNRRQKEKR [P24F],-0.999 ± 0.29
16,KKRTSIEVSVKGALESHFLKCPKMSAQEITSLADSLQLEKEVVRVWFCNRRQKEKR [P24M],-0.628 ± 0.14
17,KKRTSIEVSVKGALESHFLKCPKISAQEITSLADSLQLEKEVVRVWFCNRRQKEKR [P24I],-0.919 ± 0.38
18,KKRTSIEVSVKGALESHFLKCPKTSAQEITSLADSLQLEKEVVRVWFCNRRQKEKR [P24T],-0.986 ± 0.31
19,KKRTSIEVSVKGALESHFLKCPKCSAQEITSLADSLQLEKEVVRVWFCNRRQKEKR [P24C],-0.731 ± 0.19
20,KKRTSIEVSVKGALESHFLKCPKLSAQEITSLADSLQLEKEVVRVWFCNRRQKEKR [P24L],-0.936 ± 0.12
21,KKRTSIEVSVKGALESHFLKCPKGSAQEITSLADSLQLEKEVVRVWFCNRRQKEKR [P24G],-0.691 ± 0.11
22,KKRTSIEVSVKGALESHFLKCPKVSAQEITSLADSLQLEKEVVRVWFCNRRQKEKR [P24V],-0.821 ± 0.096
23,KKRTSIEVSVKGALESHFLKCPKQSAQEITSLADSLQLEKEVVRVWFCNRRQKEKR [P24Q],-0.86 ± 0.37
